Results published in article PMC9928087, “Plasmids manipulate bacterial behaviour through translational regulatory crosstalk”.

T1: RsmQ (Pseudomonas fluorescens SBW25 plasmid …, UniProt UPI00015066B5 1-62)
T1 sequence: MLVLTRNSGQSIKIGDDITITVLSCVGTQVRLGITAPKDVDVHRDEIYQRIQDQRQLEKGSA

B1: Full_Bind_HP (ACGGA hairpin) (structured_DNA)
DNA: CCGCGCACGGAAGCGCAAAC
B2: Bind_HP (GGA hairpin) (structured_DNA)
DNA: CCGCGCAGGAAGCGCAAAC
B3: PFLU0923 (ssDNA)
DNA: AACAATAATGCACATGGAGTAGCGTCGATG
B4: PFLU3378 (structured_DNA)
DNA: TTATTATTCGCCAGGGACGGCATTCGGGG
B5: PFLU5652 (ssDNA)
DNA: AAGACCAGATCCAGGGATATGACGACGCA
B6: PFLU5860 (ssDNA)
DNA: TCATTACCCTGCAGGGACCAAATCAACTG
B7: PFLU3467 (ssDNA)
DNA: CGCATCATTTACATGGAAGCGAGTAATCA
B8: PFLU4891 (ssDNA)
DNA: TCTGTAATGACCACGGAAAAAGTGAAGTA
B9: PFLU5529 (ssDNA)
DNA: AGTCCTTTAGGCAAGGAGTTAATTGTCGT
B10: PFLU5986 (ssDNA)
DNA: TGCCCCCTTCAGATGGAGTTTCCCCCCGC
B11: PFLU0296 (ssDNA)
DNA: ACTCAACCAGGAATAAGGAATACAAGAAA
B12: PFLU4968 (ssDNA)
DNA: TATAAGACTCGTACCCCGGAGCGCTCTCG
B13: PFLU6118 (ssDNA)
DNA: AACGGTTCAAATATTCAGAGGATCCAGCT
B14: PFLU5567 (ssDNA)
DNA: CACCAACCCTGCACGTGGAGAGAACAACA
B15: PFLU1516 (ssDNA)
DNA: CGCCATTCTTCAAGGGAGAGCCGTGTGGC
B16: PFLU4443 (fleQ) (ssDNA)
DNA: GGAAGTTTTACTAGGGAAGTTGCTATTGC
B17: PFLU4688 (ssDNA)
DNA: GACATTAATCATATGGAGACACCCTCATG
B18: PFLU0998 (ssDNA)
DNA: CGCCCGTGATCCCATGGAAACTCGAAGACT
B19: PFLU4548 (ssDNA)
DNA: TTCTAATCGCCTAAGGAGCATTGAGATGT
B20: PFLU2486 (ssDNA)
DNA: GAAACATTCCGAACGGAGAAAAAACTGGC
B21: PFLU1189 (ssDNA)
DNA: GTGAGGACTTTAATGGACGACAACAAGAA
B22: PFLU4726 (ssDNA)
DNA: GAAGACTTCGGCATGGAAGCGGCGCGAAC
B23: PFLU2358 (ssDNA)
DNA: CAAAAATATAAATACCCGCGGGTGAAGTC
B24: PFLU3427 (ssDNA)
DNA: GGCCGCCCTCTCCGCTGATGGTCGTCTCG
B25: PFLU5864 (ssDNA)
DNA: CTGCGCTCCCGATCCTGGATTTTCCGGCC
B26: PFLU4414 (ssDNA)
DNA: TCCAGTTTAGGCTTCTAAGGAGCACACCC

Assays:
[1] = test system: RsmQ (Pseudomonas fluorescens SBW25 plasmid pQBR103); test: SPR; conditions: SPR (ReDCaT SA chip, Biacore 8K): 10 mM HEPES, 150 mM NaCl, 3 mM EDTA, 0.05% Tween 20, pH 7.4, 20 C, RsmQ 100 and 1000 nM (Fig 4: 100-1000 nM)
[2] = test system: RsmQ R44A (Pseudomonas fluorescens SBW25 plasmid pQBR103); test: SPR; conditions: 100 nM protein; listed as None 2; SPR (ReDCaT SA chip, Biacore 8K): 10 mM HEPES, 150 mM NaCl, 3 mM EDTA, 0.05% Tween 20, pH 7.4, 20 C; RsmQ 100 and 1000 nM (Fig 4: 100-1000 nM)
[3] = test system: RsmQ H43A (Pseudomonas fluorescens SBW25 plasmid pQBR103); test: SPR; conditions: 100 nM protein; listed as None 2; SPR (ReDCaT SA chip, Biacore 8K): 10 mM HEPES, 150 mM NaCl, 3 mM EDTA, 0.05% Tween 20, pH 7.4, 20 C; RsmQ 100 and 1000 nM (Fig 4: 100-1000 nM)
[4] = molecular target: T1, RsmQ; test: SPR (ReDCaT); 500 nM protein; HBS-EP+ (10 mM HEPES, 150 mM NaCl, 3 mM EDTA, 0.05% v/v Tween 20, pH 7.4), 20 C, Biacore 8K, ReDCaT SA chip; high values mean tight binding; conditions: protein: recombinant; tags: C-terminal TEV site + 6xHis; chain copies: 2

Row | Molecule | binding signal [1] | binding signal [4] | other results
1 | AACAATAATGCACATGGAGTAGCGTCGATGCCTACCCTACGTCCTCCTGC [PFLU0923] | – | – | binding signal ([1]; up to 1000 nM protein): > 50 %Rmax
2 | CGCATCATTTACATGGAAGCGAGTAATCACCTACCCTACGTCCTCCTGC [PFLU3467] | < 50 %Rmax | – | –
3 | AAGACCAGATCCAGGGATATGACGACGCACCTACCCTACGTCCTCCTGC [PFLU5652] | < 50 %Rmax | – | –
4 | TCATTACCCTGCAGGGACCAAATCAACTGCCTACCCTACGTCCTCCTGC [PFLU5860] | < 50 %Rmax | – | –
5 | GACATTAATCATATGGAGACACCCTCATGCCTACCCTACGTCCTCCTGC [PFLU4688] | < 50 %Rmax | – | –
6 | CCGCGCAGGAAGCGCAAACCCTACCCTACGTCCTCCTGC [Bind_HP (GGA hairpin)] | – | – | binding signal ([1]; 100 nM protein, mean of 102.98 and 94.19): 98.6 %Rmax
7 | CACCAACCCTGCACGTGGAGAGAACAACACCTACCCTACGTCCTCCTGC [PFLU5567] | < 50 %Rmax | – | –
8 | TTCTAATCGCCTAAGGAGCATTGAGATGTCCTACCCTACGTCCTCCTGC [PFLU4548] | < 50 %Rmax | – | –
9 | CGCCCGTGATCCCATGGAAACTCGAAGACTCCTACCCTACGTCCTCCTGC [PFLU0998] | < 50 %Rmax | – | –
10 | AGTCCTTTAGGCAAGGAGTTAATTGTCGTCCTACCCTACGTCCTCCTGC [PFLU5529] | < 50 %Rmax | – | –
11 | TGCCCCCTTCAGATGGAGTTTCCCCCCGCCCTACCCTACGTCCTCCTGC [PFLU5986] | < 50 %Rmax | – | –
12 | CCGCGCACCCAGCGCAAACCCTACCCTACGTCCTCCTGC [NoBind_HP_2] | – | – | binding signal [2]: -1.89 %Rmax; binding signal ([1]; 100 nM protein, mean of 0.445 and 0.102, listed as None 2): 0.27 %Rmax; binding signal [3]: -2.51 %Rmax
13 | AACGGTTCAAATATTCAGAGGATCCAGCTCCTACCCTACGTCCTCCTGC [PFLU6118] | < 50 %Rmax | – | –
14 | TTATTATTCGCCAGGGACGGCATTCGGGGCCTACCCTACGTCCTCCTGC [PFLU3378] | – | – | binding signal ([1]; up to 1000 nM protein, highest of the genomic oligos): > 50 %Rmax
15 | CGCCATTCTTCAAGGGAGAGCCGTGTGGCCCTACCCTACGTCCTCCTGC [PFLU1516] | – | – | binding signal ([1]; up to 1000 nM protein): > 50 %Rmax
16 | TATAAGACTCGTACCCCGGAGCGCTCTCGCCTACCCTACGTCCTCCTGC [PFLU4968] | < 50 %Rmax | – | –
17 | GGGAAAAAATGTGGGCGGGTCATACCGCCCCTTTTTTTCCTACCCTACGTCCTCCTGC [RsmZ 127-end] | – | – | binding signal ([1]; mean of 1.178 and 0.729): 0.95 %Rmax
18 | ACTCAACCAGGAATAAGGAATACAAGAAACCTACCCTACGTCCTCCTGC [PFLU0296] | < 50 %Rmax | – | –
19 | GAAACATTCCGAACGGAGAAAAAACTGGCCCTACCCTACGTCCTCCTGC [PFLU2486] | < 50 %Rmax | – | –
20 | GAAGACTTCGGCATGGAAGCGGCGCGAACCCTACCCTACGTCCTCCTGC [PFLU4726] | – | – | binding signal ([1]; up to 1000 nM protein): > 50 %Rmax
21 | TCTGTAATGACCACGGAAAAAGTGAAGTACCTACCCTACGTCCTCCTGC [PFLU4891] | < 50 %Rmax | – | –
22 | GGAAGTTTTACTAGGGAAGTTGCTATTGCCCTACCCTACGTCCTCCTGC [PFLU4443 (fleQ)] | – | – | binding signal ([1]; up to 1000 nM protein): > 50 %Rmax
23 | GTGAGGACTTTAATGGACGACAACAAGAACCTACCCTACGTCCTCCTGC [PFLU1189] | < 50 %Rmax | – | –
24 | B1 | – | 61.28 ± 0.301 %Rmax | –
25 | B2 | – | 97.319 ± 0.0324 %Rmax | –

Row | Molecule | binding signal [1] | binding signal [4] | other results
26 | B3 | – | 76.5 ± 1.26 %Rmax | –
27 | B4 | – | 130.9 ± 0.261 %Rmax | –
28 | B5 | – | 24.3 ± 0.196 %Rmax | –
29 | B6 | – | 23.7 ± 0.45 %Rmax | –
30 | B7 | – | 26.05 ± 0.116 %Rmax | –
31 | B8 | – | 28.28 ± 0.104 %Rmax | –
32 | B9 | – | 41.03 ± 0.156 %Rmax | –
33 | B10 | – | 23.9 ± 0.356 %Rmax | –
34 | B11 | – | 29.5 ± 0.904 %Rmax | –
35 | B12 | – | 17.5 ± 0.242 %Rmax | –
36 | B13 | – | 21.2 ± 0.215 %Rmax | –
37 | B14 | – | 19.8 ± 0.479 %Rmax | –
38 | B15 | – | 63.68 ± 0.594 %Rmax | –
39 | B16 | – | 83.36 ± 0.145 %Rmax | –
40 | B17 | – | 18.86 ± 0.102 %Rmax | –
41 | B18 | – | 19.2 ± 0.463 %Rmax | –
42 | B19 | – | 25.35 ± 0.144 %Rmax | –
43 | B20 | – | 19.6 ± 0.424 %Rmax | –
44 | B21 | – | 24.64 ± 0.224 %Rmax | –
45 | B22 | – | 52.22 ± 0.504 %Rmax | –
46 | B23 | – | 21.4 ± 0.255 %Rmax | –
47 | B24 | – | 14.53 ± 0.0808 %Rmax | –
48 | B25 | – | 19.55 ± 0.081 %Rmax | –
49 | B26 | – | 24 ± 0.491 %Rmax | –
